Target: the molecule itself
Assay: NMR solution structure

B1: Mycobacterium tuberculosis NmtR (apo-state, homodimer) (natural protein)
chain: GHGVEGRNRPSAPLDSQAAAQVASTLQALATPSRLMILTQLRNGPLPVTDLAEAIGMEQSAVSHQLRVLRNLGLVVGDRAGRSIVYSLYDTHVAQLLDEAIYHSEHLHLGLSDRHPSAG
Does B1 bind?
Result: binds
